This data set has as its target T1, DR_1836 (DrSRP protein, Ffh homolog) (Deinococcus radiodurans R1 (ATCC 13939)) (UniProt Q9RTC9).
T1 sequence: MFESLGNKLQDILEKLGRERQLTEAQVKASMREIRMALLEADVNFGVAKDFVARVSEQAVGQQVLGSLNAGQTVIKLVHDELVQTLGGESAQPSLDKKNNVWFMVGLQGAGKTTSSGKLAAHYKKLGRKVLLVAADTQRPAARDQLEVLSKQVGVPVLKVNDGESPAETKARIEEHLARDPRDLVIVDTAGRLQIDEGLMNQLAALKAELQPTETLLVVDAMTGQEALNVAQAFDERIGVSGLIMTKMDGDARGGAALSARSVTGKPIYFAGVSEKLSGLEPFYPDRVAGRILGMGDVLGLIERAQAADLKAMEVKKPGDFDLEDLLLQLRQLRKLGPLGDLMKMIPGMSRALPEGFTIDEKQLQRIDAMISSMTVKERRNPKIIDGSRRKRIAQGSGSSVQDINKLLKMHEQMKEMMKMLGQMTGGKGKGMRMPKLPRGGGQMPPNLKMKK
As to the kind of experiment: EMSA. The following applies: 20 mM Tris-HCl pH 8.0, 1 mM MgCl2, 20 mM KCl, 10 mM Na phosphate pH 8.0, 10% glycerol, 0.2 mM DTT, 37 C 1 h; 4% native PAGE, 0.5x TBE, 4 C. (In general: Mobility shift assays separate free from complexed probe on a gel.)

With “GGGAGACGCCAGACGUAGGGCAGUACCCCCUUCUCUGCACAGCGCCCGCAACUGUGCUACCAUCCUUCCCGCAUUGCUGGUGCAGCGCAGCGCGGACGCCCGAACCUGGUCAGAGCCGGAAGGCAGCAGCCAUAAGGGAUGCUUUGCGGGUGCCGUUGCCUUCCGGCAAUGCUUUUUUCGUCUCUCCUCGGGGUCGCUUACGGGCGGCCCUGUUUUGUUGUGCUUAGAGCAAUUGACAGAA [Qpr6 (SRP RNA)]”, the binding entry is reported as “binds”.

The values are drawn from paper PMC7775534.
